This is an account of results in PMC8205012, “Novel CD123 polyaptamer hydrogel edited by Cas9/sgRNA for AML-targeted therapy”.

In the series the target is Cas9 (UniProt Q99ZW2 1-1368). Put plainly: flow cytometry, Cas9 beads; Cell binding: 1e5 cells, 50 nM (flow) or 5 uM (confocal) FAM-DNA, 37 C, 30 min, PBS wash; bead assays: beads washed in PBS, binding buffer and temperature not stated. To be noted: protein: commercial; label: FAM. On the technique in general: In flow cytometry, cells or beads pass a laser one at a time.
Sequence of Cas9 (Q99ZW2 whole entry): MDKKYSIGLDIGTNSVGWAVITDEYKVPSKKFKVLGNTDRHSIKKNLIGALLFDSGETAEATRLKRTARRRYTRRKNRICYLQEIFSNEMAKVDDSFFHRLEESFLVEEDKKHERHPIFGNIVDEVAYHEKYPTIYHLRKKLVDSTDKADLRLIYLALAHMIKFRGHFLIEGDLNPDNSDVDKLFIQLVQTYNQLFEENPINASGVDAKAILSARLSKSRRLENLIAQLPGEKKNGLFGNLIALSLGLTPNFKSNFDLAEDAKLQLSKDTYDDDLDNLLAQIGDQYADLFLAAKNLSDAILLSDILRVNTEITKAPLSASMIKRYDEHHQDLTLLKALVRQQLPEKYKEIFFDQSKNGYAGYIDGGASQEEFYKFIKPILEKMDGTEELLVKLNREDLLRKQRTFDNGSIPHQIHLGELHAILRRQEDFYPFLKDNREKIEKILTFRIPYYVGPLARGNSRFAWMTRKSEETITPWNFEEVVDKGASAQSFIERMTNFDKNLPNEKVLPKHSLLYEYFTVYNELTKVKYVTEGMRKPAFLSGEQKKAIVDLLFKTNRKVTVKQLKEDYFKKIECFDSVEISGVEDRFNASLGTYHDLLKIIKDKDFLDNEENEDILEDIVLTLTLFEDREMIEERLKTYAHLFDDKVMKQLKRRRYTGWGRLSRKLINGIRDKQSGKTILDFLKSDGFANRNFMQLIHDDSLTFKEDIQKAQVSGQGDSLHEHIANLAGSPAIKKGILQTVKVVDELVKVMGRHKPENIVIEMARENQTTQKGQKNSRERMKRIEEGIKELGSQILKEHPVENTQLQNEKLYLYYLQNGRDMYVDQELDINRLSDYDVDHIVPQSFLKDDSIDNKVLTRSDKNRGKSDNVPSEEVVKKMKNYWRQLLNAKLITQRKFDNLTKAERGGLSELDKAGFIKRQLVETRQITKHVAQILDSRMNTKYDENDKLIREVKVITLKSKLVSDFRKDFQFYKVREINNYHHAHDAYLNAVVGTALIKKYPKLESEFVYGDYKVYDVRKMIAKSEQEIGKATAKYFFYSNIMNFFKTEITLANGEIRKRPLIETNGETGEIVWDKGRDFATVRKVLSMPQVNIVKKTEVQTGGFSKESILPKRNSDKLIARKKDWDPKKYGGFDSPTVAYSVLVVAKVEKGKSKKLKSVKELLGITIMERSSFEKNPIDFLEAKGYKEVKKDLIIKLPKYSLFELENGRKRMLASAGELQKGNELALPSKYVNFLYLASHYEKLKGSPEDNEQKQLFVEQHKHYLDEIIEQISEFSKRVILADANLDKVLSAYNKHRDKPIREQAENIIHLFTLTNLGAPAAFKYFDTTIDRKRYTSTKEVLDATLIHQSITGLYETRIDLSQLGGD

B1: sgRNA (structured_RNA)
RNA: GGUGGUGCAGAUGAACUUCAGUUUUAGAGCUAGAAAUAGCAAGUUAAAAUAAGGCUAGUCCGUUAUCAACUUGAAAAAGUGGCACCGAGUCGGUGCUUUU
Take B1: the binding result is on record as “binds”.
